According to the supplement of paper PMC9233669:
This sample holds only a part of the variants without activity.

Experiments:
biotinyl-Phe-oxazolone = experiment: self-aminoacylation, catalytic enhancement (BFO) (fold over background); higher = more active; k-Seq, kA / k0A0; sequences stand for … in GGGAAUGGAUCCACAUCUACGAAUUC…UUCACUGCAGACUUGACGAAGCUG
Summary of the method: (§1)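 The uncatalyzed rate is the low-activity peak of a bimodal Gaussian fit, and catalytic enhancement is median kA divided by it. The kA values came from pseudo-first-order fits, with 1000 bootstraps, of per-sequence fraction reacted measured by streptavidin capture, triplicate qPCR and Illumina sequencing. Mutagenized RNA pools with a 21-nt variable region (0.43 μM) were reacted with each biotinyl-aminoacyl-oxazolone at 2–1250 μM in 50 μL HEPES/NaCl/KCl/MgCl2/CaCl2 buffer with 5% acetonitrile, pH 6.9–7.0, for 90 minutes at room temperature.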

biotinyl-Val-oxazolone = experiment: self-aminoacylation, catalytic enhancement (BVO) (fold over background); higher = more active; k-Seq, kA / k0A0; sequences stand for … in GGGAAUGGAUCCACAUCUACGAAUUC…UUCACUGCAGACUUGACGAAGCUG
Summary of the method: as §1

biotinyl-Trp-oxazolone = experiment: self-aminoacylation, catalytic enhancement (BWO) (fold over background); higher = more active; k-Seq, kA / k0A0; sequences stand for … in GGGAAUGGAUCCACAUCUACGAAUUC…UUCACUGCAGACUUGACGAAGCUG
Summary of the method: as §1

biotinyl-Leu-oxazolone = experiment: self-aminoacylation, catalytic enhancement (BLO) (fold over background); higher = more active; k-Seq, kA / k0A0; sequences stand for … in GGGAAUGGAUCCACAUCUACGAAUUC…UUCACUGCAGACUUGACGAAGCUG
Summary of the method: as §1

biotinyl-Met-oxazolone = experiment: self-aminoacylation, catalytic enhancement (BMO) (fold over background); higher = more active; k-Seq, kA / k0A0; sequences stand for … in GGGAAUGGAUCCACAUCUACGAAUUC…UUCACUGCAGACUUGACGAAGCUG
Summary of the method: as §1

biotinyl-Ile-oxazolone = experiment: self-aminoacylation, catalytic enhancement (BIO) (fold over background); higher = more active; k-Seq, kA / k0A0; sequences stand for … in GGGAAUGGAUCCACAUCUACGAAUUC…UUCACUGCAGACUUGACGAAGCUG
Summary of the method: as §1

Sequence	self-aminoacylation (biotinyl-Phe-oxazolone)	self-aminoacylation (biotinyl-Val-oxazolone)	self-aminoacylation (biotinyl-Trp-oxazolone)	self-aminoacylation (biotinyl-Leu-oxazolone)	self-aminoacylation (biotinyl-Met-oxazolone)	self-aminoacylation (biotinyl-Ile-oxazolone)
CCACACGUGAAGCAAUCGGUC [Fam1B.1 aminoacylation ribozyme variant]	0.826	1.2	1.39	0.721	1.32	0.9
CCACACUACAAACAAUCGGUC [Fam1B.1 aminoacylation ribozyme variant]	1.41	0.883	0.993	0.652	0.642	0.904
CCACACUACAAGCAAUCGUUC [Fam1B.1 aminoacylation ribozyme variant]	0.644	0.679	0.468	0.54	0.548	0.643
CCACACUAUAAGCAAUCGGUC [Fam1B.1 aminoacylation ribozyme variant]	0.92	0.793	0.386	0.59	0.567	0.789
CCACACUCCAAACAAUCGGUC [Fam1B.1 aminoacylation ribozyme variant]	10.9	1.31	6.11	1.09	0.917	0.982
CCACACUCCAAGAAAUCGGUC [Fam1B.1 aminoacylation ribozyme variant]	0.991	0.973	1	0.848	0.768	1.31
CCACACUCCAAGCAAACGGUC [Fam1B.1 aminoacylation ribozyme variant]	1.06	0.773	1.21	0.861	0.934	0.95
CCACACUCCAAGCAAUAGGUC [Fam1B.1 aminoacylation ribozyme variant]	1.06	0.845	0.637	0.569	0.686	0.741
CCACACUCCAAGCAAUCGGCC [Fam1B.1 aminoacylation ribozyme variant]	2.68	2.36	2.59	1.28	1.36	1.63
CCACACUCCAAGCAGUCGGUC [Fam1B.1 aminoacylation ribozyme variant]	0.733	1.49	1.04	1.11	1.04	1.32
CCACACUCCAAGUAAUCGGUC [Fam1B.1 aminoacylation ribozyme variant]	1.97	0.95	1.29	0.919	0.951	1.01
CCACACUCCUAGCAAUCGGUC [Fam1B.1 aminoacylation ribozyme variant]	0.91	1.04	0.519	0.746	0.631	0.943
CCACACUGCAAGCAAUCGAUC [Fam1B.1 aminoacylation ribozyme variant]	1.39	1.07	0.727	0.739	0.56	0.9
CCACACUGCAAGCAAUCGGUU [Fam1B.1 aminoacylation ribozyme variant]	5.76	1.73	1.76	1.63	2.17	1.77
CCACACUGCAAGCACUCGGUC [Fam1B.1 aminoacylation ribozyme variant]	2.57	1.66	1.47	1.39	1.54	1.63
CCACACUGCAAGCGAUCGGUC [Fam1B.1 aminoacylation ribozyme variant]	1.13	1.57	1.43	1.15	1.19	1.27
CCACACUUAAACCAAUCGGUC [Fam1B.1 aminoacylation ribozyme variant]	1.19	0.756	0.722	0.572	0.615	0.938
CCACACUUAAAGCAACCGGUC [Fam1B.1 aminoacylation ribozyme variant]	0.756	1.16	0.943	0.876	1.2	1.08
CCACACUUAAAGCAAUCGGUG [Fam1B.1 aminoacylation ribozyme variant]	26	2.42	4.42	4.31	3.87	2.75
CCACACUUAAAGCACUCGGUC [Fam1B.1 aminoacylation ribozyme variant]	0.788	1.11	0.732	0.924	0.856	1.16
CCACACUUAAAGGAAUCGGUC [Fam1B.1 aminoacylation ribozyme variant]	0.88	1.01	0.763	0.906	0.953	1.12
CCACACUUCAAACAAUCAGUC [Fam1B.1 aminoacylation ribozyme variant]	42.2	1.06	12.4	1.16	0.771	0.947
CCACACUUCAAACAAUCCGUC [Fam1B.1 aminoacylation ribozyme variant]	1.35	0.993	1.2	0.682	0.559	0.83
CCACACUUCAAACAAUCGUUC [Fam1B.1 aminoacylation ribozyme variant]	1.55	0.822	0.778	0.623	0.697	0.759
CCACACUUCAAAGAAUCGGUC [Fam1B.1 aminoacylation ribozyme variant]	12.1	0.955	9.57	1.17	0.888	0.988
CCACACUUCAACCAAGCGGUC [Fam1B.1 aminoacylation ribozyme variant]	0.838	1.08	0.613	0.761	0.914	0.95

Sequence	self-aminoacylation (biotinyl-Phe-oxazolone)	self-aminoacylation (biotinyl-Val-oxazolone)	self-aminoacylation (biotinyl-Trp-oxazolone)	self-aminoacylation (biotinyl-Leu-oxazolone)	self-aminoacylation (biotinyl-Met-oxazolone)	self-aminoacylation (biotinyl-Ile-oxazolone)
CCACACUUCAACCAAUCGGCC [Fam1B.1 aminoacylation ribozyme variant]	4.99	2	5.45	1.72	1.55	2.12
CCACACUUCAACCAAUCGUUC [Fam1B.1 aminoacylation ribozyme variant]	1.28	0.636	0.778	0.562	0.634	0.674
CCACACUUCAACCUAUCGGUC [Fam1B.1 aminoacylation ribozyme variant]	1.18	1.34	0.993	0.995	0.87	1.02
CCACACUUCAAGAAACCGGUC [Fam1B.1 aminoacylation ribozyme variant]	0.875	0.824	0.931	1.17	0.798	0.998
CCACACUUCAAGAAAGCGGUC [Fam1B.1 aminoacylation ribozyme variant]	0.498	0.716	0.407	0.784	0.66	0.839
CCACACUUCAAGAAAUCGGGC [Fam1B.1 aminoacylation ribozyme variant]	1.14	1.69	2.16	1.64	1.82	2.14
CCACACUUCAAGCAAACGGUC [Fam1B.1 aminoacylation ribozyme variant]	1.02	0.755	0.599	0.535	0.511	0.624
CCACACUUCAAGCAAACUGUC [Fam1B.1 aminoacylation ribozyme variant]	0.713	0.504	0.5	0.44	0.371	0.424
CCACACUUCAAGCAAGCAGUC [Fam1B.1 aminoacylation ribozyme variant]	0.916	0.857	0.475	0.861	0.645	0.721
CCACACUUCAAGCAAGCGGUA [Fam1B.1 aminoacylation ribozyme variant]	0.741	1.2	0.921	1.13	1.02	1.39
CCACACUUCAAGCAAGCGUUC [Fam1B.1 aminoacylation ribozyme variant]	0.905	0.728	0.492	0.516	0.454	0.689
CCACACUUCAAGCAAUAGGAC [Fam1B.1 aminoacylation ribozyme variant]	0.856	0.537	0.626	0.479	0.456	0.621
CCACACUUCAAGCAAUAGGUG [Fam1B.1 aminoacylation ribozyme variant]	4.08	1.65	2.55	2.81	2.17	1.85
CCACACUUCAAGCAAUCCAUC [Fam1B.1 aminoacylation ribozyme variant]	0.752	0.774	0.529	0.446	0.433	0.553
CCACACUUCAAGCAAUCCGCC [Fam1B.1 aminoacylation ribozyme variant]	0.939	1.64	0.899	1.02	1.16	0.873
CCACACUUCAAGCAAUCGCCC [Fam1B.1 aminoacylation ribozyme variant]	0.498	2.32	1.58	2	1.33	0.996
CCACACUUCAAGCAAUCGGAA [Fam1B.1 aminoacylation ribozyme variant]	1.81	1.51	1.18	2.04	1.42	1.45
CCACACUUCAAGCAAUCGGUC [Fam1B.1 aminoacylation ribozyme variant]	59.3	1.25	23.9	1.44	0.964	1.01
CCACACUUCAAGCAAUCGGUU [Fam1B.1 aminoacylation ribozyme variant]	9.59	1.59	7.61	1.38	1.36	1.35
CCACACUUCAAGCAAUCGUCC [Fam1B.1 aminoacylation ribozyme variant]	1.57	0.652	1.06	0.518	0.412	0.54
CCACACUUCAAGCAAUCUGAC [Fam1B.1 aminoacylation ribozyme variant]	0.63	0.549	0.429	0.325	0.41	0.493
CCACACUUCAAGCAAUUGGCC [Fam1B.1 aminoacylation ribozyme variant]	2.34	4.13	3.51	3.18	2.58	2.77
CCACACUUCAAGCACUCGGCC [Fam1B.1 aminoacylation ribozyme variant]	15.9	4.04	5.51	3.19	2.89	3.06
CCACACUUCAAGCACUCGGUG [Fam1B.1 aminoacylation ribozyme variant]	22.4	3.16	3.63	4.22	3.52	2.92
CCACACUUCAAGCAGCCGGUC [Fam1B.1 aminoacylation ribozyme variant]	0.916	1.56	1.68	1.82	1.32	1.97
